Reference: publication PMC12770985
pKd: −log10 of the molar value.

Experiments:
[1] = target: Gerd_aPriL1, non-catalytic primase subunit PriL (Loki group) of Candidatus Gerdarchaeota archaeon B18_G1 (Candidatus Gerdarchaeota archaeon B18_G1); assay: SPR; BIACORE, CM5 chip; Gerd_ePriL or Gerd_aPriL1 immobilised, Gerd_ePriS concentration gradient (methods; the legend of Figure 3 tells the reverse); 20 mM Hepes pH 7.5, 500 mM NaCl, 0.005% Tween 20, 30 uL/min, 25 °C
[2] = target: Gerd_ePriL, non-catalytic primase subunit PriL (Heimdall group) of Candidatus Gerdarchaeota archaeon B18_G1 (Candidatus Gerdarchaeota archaeon B18_G1); assay: as above

pKd [1]: 6.98
pKd [2]: 8.57
Substance: Gerd_ePriS, catalytic primase subunit PriS of Candidatus Gerdarchaeota archaeon B18_G1 (enzyme)
